In the supplement of paper PMC10567573:
± gives the standard deviation.

Experiment: protein stability index of a GFP-peptide fusion (GPS, HEK-293T) (PSI 1-6); higher = more stable
Details: c terminus: a fixed tail appended
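Note: 24-mer peptide tiles fused after GFP, lentivirally expressed, FACS-sorted into six equal bins by GFP/DsRed ratio, decoded by Illumina sequencing, PSI is the read-weighted mean bin number.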

| Sequence | protein stability index (treatment: DMSO) | protein stability index (treatment: MLN4924 1 uM, 8 h) |
| --- | --- | --- |
| KVTGYLISYSSMLGAVAGLALGPI [MFSD9] | 3.31 ± 0.48 | 2.96 ± 0.28 |
| GKTMELFCQTDQTCICYLCMFQEH [TRIM29] | 2.34 ± 0.064 | 2.33 ± 0.25 |
| LRGKECCINRFQQVESRWGYSGTS [BTBD1] | 2.47 ± 0.18 | 2.72 ± 0.16 |
| NITDETPDNCEMFLNFNGMKLFLD [ZER1] | 3.62 ± 0.18 | 3.65 ± 0.46 |
| PANVDASVMFRKWRDSKGKDKEYA [UBE2R2] | 4.09 ± 0.27 | 3.95 ± 0.24 |
| QILLEWCRSKTLGYQHVDLQNFSS [SMTNL2] | 2.72 ± 0.56 | 2.49 ± 0.43 |
| EEYSQIIYSTKLYRFFKYIENRDV [BTBD10] | 1.64 ± 0.19 | 1.87 ± 0.4 |
| VWNRKLDLLCKTSHLSDTGISALV [WDR41] | 2.26 ± 0.27 | 2.2 ± 0.34 |
| HHHGRSRPDRSSQGGSLPSEEKGH [CHGB] | 5.34 ± 0.06 | 5.31 ± 0.083 |
| PPITEVESQVFSEKLATDTSTFEA [ZNF232] | 5.33 ± 0.2 | 5.26 ± 0.083 |
| KNGQGFALVYSITAQSTFNDLQDL [RAP1B] | 2.23 ± 0.42 | 2.17 ± 0.45 |
| SQPLDREATSHYIIELLASDAGSP [PCDHGC5] | 3.33 ± 0.27 | 3.52 ± 0.2 |
| TSVEECSQKGCLALSLLELLGFNL [CLCN6] | 2.57 ± 0.68 | 2.37 ± 0.15 |
| EACLVAQCDALIDALNRRKAQLLA [TRIM9] | 2.46 ± 0.29 | 2.65 ± 0.44 |
| QPKCDNTARAHPAKARDLYKGRQL [SMOC2] | 4.26 ± 0.17 | 4.35 ± 0.19 |
| CFKGELPLRAVHINLEEKEKQIRS [PLEKHN1] | 3.95 ± 0.18 | 3.96 ± 0.33 |
| IDRNLREDGEKAAREVKLLLLGAG [GNAI1] | 3.67 ± 0.23 | 3.58 ± 0.096 |
| LSEASGGRAENGERSDLEEDNERE [ZC3H15] | 5.53 ± 0.47 | 5.81 ± 0.062 |
| DMKAMSPENQEYFEKHRWPPVWYL [RHOBTB2] | 2.47 ± 0.17 | 2.67 ± 0.36 |
| GMADVGTVCDPARSCAIVEDDGLQ [ADAMTS4] | 4.62 ± 1.1 | 5.33 ± 0.088 |
| SMVPPSPAMAASKALGSDLDSSLA [SNAP91] | 4.59 ± 0.097 | 4.6 ± 0.26 |
| ELNKKMTNIRLPNVPSSSLPAQPN [CHMP4C] | 3.66 ± 0.4 | 3.63 ± 0.18 |

| Sequence | protein stability index (treatment: DMSO) | protein stability index (treatment: MLN4924 1 uM, 8 h) |
| --- | --- | --- |
| ILFVNSEFETLYNEHKSCEEKSVK [CLK3] | 2.74 ± 0.25 | 3.05 ± 0.3 |
| AVVQLYLALPPGAEHWTKEHCGAV [WAS] | 3.03 ± 0.59 | 2.71 ± 0.31 |
| LAIQARKRRPKREKHPKKPEPQQK [SRPK2] | 4.32 ± 0.2 | 4.59 ± 0.25 |
| NESKGTRESWDSAKKLPPVQESQS [ELOA2] | 5.41 ± 0.096 | 5.1 ± 0.4 |
| MWKFVSPLCMAVLTTASIIQLGVT [SLC6A17] | 3.21 ± 0.58 | 2.87 ± 0.49 |
| PSPPPGSHYTSPSENMWNTGSTYN [CARM1] | 3.8 ± 0.43 | 3.81 ± 0.23 |
| KERKKREERERKRRKEEEVQQQKL [FAF2] | 5.09 ± 0.46 | 4.91 ± 0.31 |
| PESDILQPVPNTTEPDYKSKDWVF [STK38L] | 4.45 ± 0.32 | 4.55 ± 0.19 |
| SPKGTLPPAALESSDSANTTIEDE [CAMK2B] | 5.64 ± 0.16 | 5.54 ± 0.29 |
| SSSSSSSWLTRRAIRPENRAPGAG [EMD] | 4.33 ± 0.25 | 4.16 ± 0.25 |
| MTVKPAKAASLARNLAKRRRTYLG [RSPH3] | 3.16 ± 0.3 | 3.6 ± 0.3 |
| NETQPIDLSGLPLQSSKNSYSFQN [RNF180] | 3.95 ± 0.22 | 3.89 ± 0.18 |
| GYRGYQYILECDHHGGDYKHWREW [CRYBA1] | 2.16 ± 0.25 | 1.93 ± 0.14 |
| PTICMAYLMKTKQFRLKEAFDYIK [DUSP5] | 2.27 ± 0.47 | 2.54 ± 0.31 |
| SGLDDFFLDIDTSAVEKEPARAPP [SERTAD3] | 4.71 ± 0.24 | 4.75 ± 0.31 |
| DQLLLATGLNNGRIKIWDVYTGKL [WSB1] | 2.17 ± 0.29 | 2.17 ± 0.31 |
| LKTGNSSPGIGAVYLANQAKNQSD [RTP4] | 3.82 ± 0.14 | 3.97 ± 0.19 |
| FTLNPDKKTCRRINYCALNKPGCE [MATN2] | 2.64 ± 0.64 | 2.96 ± 0.45 |
| NQMKERQGLFFDMEAYLPKKNGLY [TMEM120A] | 2.65 ± 0.077 | 2.73 ± 0.15 |
| QLDIASQSLDQEILLKVKTEIEEE [BCL2L13] | 5.21 ± 0.37 | 5.09 ± 0.21 |
| DDVLPWRRTAENKLDTKYPYVCHA [DCTD] | 3.331 ± 0.026 | 3.31 ± 0.39 |
| QRIHAAERLCMGVDCTEIFGGNPR [ZNF263] | 3.36 ± 0.27 | 3.38 ± 0.31 |

| Sequence | protein stability index (treatment: DMSO) | protein stability index (treatment: MLN4924 1 uM, 8 h) |
| --- | --- | --- |
| PETEAVSSSQEIPTMPQPIEKVSV [ZMYND11] | 5.24 ± 0.33 | 5.36 ± 0.26 |
| QKRQQLSEDTLTIHGLPTEGYQAL [C22orf31] | 3.91 ± 0.12 | 3.92 ± 0.096 |
| ALKDSLRPKLSEEQQRIIAILLDA [VDR] | 2.44 ± 0.2 | 2.44 ± 0.41 |
| ASGLGLEITTQFLIYASYFALIAV [SLC19A2] | 3.26 ± 0.26 | 3.13 ± 0.47 |
| VVNTDHGSPEQLQIPVTDSGRHIL [SDE2] | 4.18 ± 0.15 | 4.29 ± 0.45 |
| NTLKRENSSPRVMQRKQSLGKPDQ [DLC1] | 4.85 ± 0.24 | 4.83 ± 0.38 |
| QDGVSCLNIVERYDPKENKWTRVA [KLHL20] | 3.98 ± 0.28 | 4.08 ± 0.21 |
| EQLLDVKLALDMEISAYRKLLQGE [LMNB1] | 3.02 ± 0.45 | 3.13 ± 0.55 |
| ALQNKDTYEPFCKVPVITSSKEEQ [KCTD10] | 4.4 ± 0.14 | 4.5 ± 0.16 |
| VPGHRSERAIRTQPKQLIVDDLKG [SPRY1] | 4.25 ± 0.34 | 4.13 ± 0.47 |
| NPPKASAAPDCTPSLEAGNPAPAA [MYCL] | 5.34 ± 0.19 | 5.34 ± 0.23 |
| ACIAYIRLTQYMDGSGMPKTMQSE [CAMK2D] | 2.88 ± 0.5 | 2.55 ± 0.59 |
| GFLTVTNLGVENMNHYKKTTLEIH [PTPN9] | 1.93 ± 0.59 | 1.92 ± 0.4 |
| FLLKFLLVGDSDVGKGEILASLQD [RAB40B] | 3.52 ± 0.49 | 1.86 ± 0.28 |
| QQQHVSCQVFPERLAQGNPQQGFF [ATP23] | 3.5 ± 0.34 | 3.28 ± 0.39 |
| QLSPSPTPASQSPKKPPAKDPLAD [SNAP91] | 5.49 ± 0.26 | 5.53 ± 0.29 |
| FPRDAVQIEEVFISEEIQMSTKES [MIA2] | 4.56 ± 0.17 | 4.5 ± 0.2 |
| VLENNLEAVARHMLIFSLALEEPE [DNAAF3] | 2.74 ± 1.1 | 2.52 ± 0.37 |
| QAGGEGAGGELGISLNMCLLGALV [PBXIP1] | 2.92 ± 0.65 | 2.23 ± 0.33 |
| SNLQAMSTQMFQTKRCFRLAPTFS [SMG5] | 2.17 ± 0.36 | 2.2 ± 0.14 |
| AAVAQKPRSHFTTPAPMSSAWKTV [MYBL2] | 3.06 ± 0.14 | 2.97 ± 0.22 |
